Assay results as given in the RNAGym collection of RNA variant scans (doi:10.1021/acssynbio.7b00057).

B1: Pistol ribozyme (parent)
chain: GGGUCGUUGUUCCAUAAUCGCGUGGAUAUGGCACGCAAGUUUCUACCGGGCACCGUAAAUGUCCGACUGGAGCCGUUCGGGCGGCUAUAAACAGACCUCAGGCCCGAAGCGUGGCGGCACCUGCCGCCGGUGGUAAAAAAGAUCGGAAGAGCACACGUCU

Variants of: B1
Assay: aptazyme ON/OFF ratio, guanine; higher = stronger switching; co-transcriptional cleavage with and without guanine

**Q.** Which “aptazyme ON/OFF ratio” value does the source give for GGGUCGCUUCACAAUAAUCGCGUGGAUAUGGCACGCAAGUUUCUACCGGGCACCGUAAAUGUCCGACUGGAGCCGUUCGGGCGGCUAUAAACAGACCUCAGGCCCGAAGCGUGGCGGCACCUGCCGCCGGUGGUAAAAAAGAUCGGAAGAGCACACGUCU [U7C G9U U10C U11A C13A] here?
**A.** The value was 1.1.

**Q.** With GGGUCGCUUCAGUAUAAUCGCGUGGAUAUGGCACGCAAGUUUCUACCGGGCACCGUAAAUGUCCGACUGGAGCCGUUCGGGCGGCUAUAAACAGACCUCAGGCCCGAAGCGUGGCGGCACCUGCCGCCGGUGGUAAAAAAGAUCGGAAGAGCACACGUCU [U7C G9U U10C U11A C12G C13U] as the variant, how does the “aptazyme ON/OFF ratio” value read?
**A.** The value was 1.15.

**Q.** For GGGUCGCUUCAGAAUAAUCGCGUGGAUAUGGCACGCAAGUUUCUACCGGGCACCGUAAAUGUCCGACUGGAGCCGUUCGGGCGGCUAUAAACAGACCUCAGGCCCGAAGCGUGGCGGCACCUGCCGCCGGUGGUAAAAAAGAUCGGAAGAGCACACGUCU [U7C G9U U10C U11A C12G C13A], which “aptazyme ON/OFF ratio” value is on record?
**A.** Its value is 1.19.

**Q.** With GGGUCGCUUCAGGAUAAUCGCGUGGAUAUGGCACGCAAGUUUCUACCGGGCACCGUAAAUGUCCGACUGGAGCCGUUCGGGCGGCUAUAAACAGACCUCAGGCCCGAAGCGUGGCGGCACCUGCCGCCGGUGGUAAAAAAGAUCGGAAGAGCACACGUCU [U7C G9U U10C U11A C12G C13G] as the variant, how does the “aptazyme ON/OFF ratio” value read?
**A.** Its value is 1.23.

**Q.** Which “aptazyme ON/OFF ratio” value does the source give for GGGUCGCUUCAUAAUAAUCGCGUGGAUAUGGCACGCAAGUUUCUACCGGGCACCGUAAAUGUCCGACUGGAGCCGUUCGGGCGGCUAUAAACAGACCUCAGGCCCGAAGCGUGGCGGCACCUGCCGCCGGUGGUAAAAAAGAUCGGAAGAGCACACGUCU [U7C G9U U10C U11A C12U C13A] here?
**A.** Its value is 1.13.

**Q.** Which “aptazyme ON/OFF ratio” value does the source give for GGGUCGCUUCAUGAUAAUCGCGUGGAUAUGGCACGCAAGUUUCUACCGGGCACCGUAAAUGUCCGACUGGAGCCGUUCGGGCGGCUAUAAACAGACCUCAGGCCCGAAGCGUGGCGGCACCUGCCGCCGGUGGUAAAAAAGAUCGGAAGAGCACACGUCU [U7C G9U U10C U11A C12U C13G] here?
**A.** Its value is 1.04.

**Q.** For GGGUCGCUUCAUUAUAAUCGCGUGGAUAUGGCACGCAAGUUUCUACCGGGCACCGUAAAUGUCCGACUGGAGCCGUUCGGGCGGCUAUAAACAGACCUCAGGCCCGAAGCGUGGCGGCACCUGCCGCCGGUGGUAAAAAAGAUCGGAAGAGCACACGUCU [U7C G9U U10C U11A C12U C13U], which “aptazyme ON/OFF ratio” value is on record?
**A.** The value was 1.16.

**Q.** For GGGUCGCUUCUGAAUAAUCGCGUGGAUAUGGCACGCAAGUUUCUACCGGGCACCGUAAAUGUCCGACUGGAGCCGUUCGGGCGGCUAUAAACAGACCUCAGGCCCGAAGCGUGGCGGCACCUGCCGCCGGUGGUAAAAAAGAUCGGAAGAGCACACGUCU [U7C G9U U10C C12G C13A], which “aptazyme ON/OFF ratio” value is on record?
**A.** The value was 1.05.

**Q.** With GGGUCGCUUCUGUAUAAUCGCGUGGAUAUGGCACGCAAGUUUCUACCGGGCACCGUAAAUGUCCGACUGGAGCCGUUCGGGCGGCUAUAAACAGACCUCAGGCCCGAAGCGUGGCGGCACCUGCCGCCGGUGGUAAAAAAGAUCGGAAGAGCACACGUCU [U7C G9U U10C C12G C13U] as the variant, how does the “aptazyme ON/OFF ratio” value read?
**A.** Its value is 1.07.

**Q.** Which “aptazyme ON/OFF ratio” value does the source give for GGGUCGCUUCUGGAUAAUCGCGUGGAUAUGGCACGCAAGUUUCUACCGGGCACCGUAAAUGUCCGACUGGAGCCGUUCGGGCGGCUAUAAACAGACCUCAGGCCCGAAGCGUGGCGGCACCUGCCGCCGGUGGUAAAAAAGAUCGGAAGAGCACACGUCU [U7C G9U U10C C12G C13G] here?
**A.** Its value is 1.06.

**Q.** For GGGUCGCUUCUUUAUAAUCGCGUGGAUAUGGCACGCAAGUUUCUACCGGGCACCGUAAAUGUCCGACUGGAGCCGUUCGGGCGGCUAUAAACAGACCUCAGGCCCGAAGCGUGGCGGCACCUGCCGCCGGUGGUAAAAAAGAUCGGAAGAGCACACGUCU [U7C G9U U10C C12U C13U], which “aptazyme ON/OFF ratio” value is on record?
**A.** The value was 1.08.

**Q.** Which “aptazyme ON/OFF ratio” value does the source give for GGGUCGCUUCUUAAUAAUCGCGUGGAUAUGGCACGCAAGUUUCUACCGGGCACCGUAAAUGUCCGACUGGAGCCGUUCGGGCGGCUAUAAACAGACCUCAGGCCCGAAGCGUGGCGGCACCUGCCGCCGGUGGUAAAAAAGAUCGGAAGAGCACACGUCU [U7C G9U U10C C12U C13A] here?
**A.** The value was 1.08.

**Q.** For GGGUCGCUUCUUGAUAAUCGCGUGGAUAUGGCACGCAAGUUUCUACCGGGCACCGUAAAUGUCCGACUGGAGCCGUUCGGGCGGCUAUAAACAGACCUCAGGCCCGAAGCGUGGCGGCACCUGCCGCCGGUGGUAAAAAAGAUCGGAAGAGCACACGUCU [U7C G9U U10C C12U C13G], which “aptazyme ON/OFF ratio” value is on record?
**A.** Its value is 1.05.

**Q.** For GGGUCGCUUCUUCAUAAUCGCGUGGAUAUGGCACGCAAGUUUCUACCGGGCACCGUAAAUGUCCGACUGGAGCCGUUCGGGCGGCUAUAAACAGACCUCAGGCCCGAAGCGUGGCGGCACCUGCCGCCGGUGGUAAAAAAGAUCGGAAGAGCACACGUCU [U7C G9U U10C C12U], which “aptazyme ON/OFF ratio” value is on record?
**A.** The value was 1.09.

**Q.** For GGGUCGCUUCUGCAUAAUCGCGUGGAUAUGGCACGCAAGUUUCUACCGGGCACCGUAAAUGUCCGACUGGAGCCGUUCGGGCGGCUAUAAACAGACCUCAGGCCCGAAGCGUGGCGGCACCUGCCGCCGGUGGUAAAAAAGAUCGGAAGAGCACACGUCU [U7C G9U U10C C12G], which “aptazyme ON/OFF ratio” value is on record?
**A.** The value was 1.09.

**Q.** With GGGUCGCUUCUACAUAAUCGCGUGGAUAUGGCACGCAAGUUUCUACCGGGCACCGUAAAUGUCCGACUGGAGCCGUUCGGGCGGCUAUAAACAGACCUCAGGCCCGAAGCGUGGCGGCACCUGCCGCCGGUGGUAAAAAAGAUCGGAAGAGCACACGUCU [U7C G9U U10C C12A] as the variant, how does the “aptazyme ON/OFF ratio” value read?
**A.** The value was 1.1.

**Q.** With GGGUCGCUUCCCCAUAAUCGCGUGGAUAUGGCACGCAAGUUUCUACCGGGCACCGUAAAUGUCCGACUGGAGCCGUUCGGGCGGCUAUAAACAGACCUCAGGCCCGAAGCGUGGCGGCACCUGCCGCCGGUGGUAAAAAAGAUCGGAAGAGCACACGUCU [U7C G9U U10C U11C] as the variant, how does the “aptazyme ON/OFF ratio” value read?
**A.** The value was 1.05.

**Q.** With GGGUCGCUUCACCAUAAUCGCGUGGAUAUGGCACGCAAGUUUCUACCGGGCACCGUAAAUGUCCGACUGGAGCCGUUCGGGCGGCUAUAAACAGACCUCAGGCCCGAAGCGUGGCGGCACCUGCCGCCGGUGGUAAAAAAGAUCGGAAGAGCACACGUCU [U7C G9U U10C U11A] as the variant, how does the “aptazyme ON/OFF ratio” value read?
**A.** The value was 1.11.
